To fix the notation:
B1: TM377 (antibody, human IgG4 S228P, kappa, V domains shown)
VH: EVQILETGGGLVKPGGSLRLSCATSGFNFNDSFMNWVRQAPGKGLEWVAQIRNKNYNYATYYTESLEGRVTISRDDSKSRVYLQVSSLRAEDSAVYYCTSYYYDGFADYFDYWGQGVMVTVSS
VL: DIKMTQSPSFLSASVGDSVTFTCKASQNIYIYLNWYQQKFGEAPKLLIYNTNNLQTGIPSRFSGSESGTVFTLTISSLQPEDVATYFCLQHSSRRTFGGGTKLELKR
notes: chimeric: LYV377 VH/human IgG4, LYV377 VL/kappa; also called chimeric parent TM377
B2: Ly468 (bispecific antibody, human IgG1, kappa)
heavy: QVQLKESGPGLVAPSQSLSITCTVSGFSLTDYGVRWIRQPPGKGLEWLGVIWGGGSTYYNSALKSRLSISKDNSKSQVFLKMNSLQTDDTAMYYCAKEKRRGYYYAMDYWGQGTSVTVSSASTKGPSVFPLAPSSKSTSGGTAALGCLVKDYFPEPVTVSWNSGALTSGVHTFPAVLQSSGLYSLSSVVTVPSSSLGTQTYICNVNHKPSNTKVDKKVEPKSCDKTHTCPPCPAPELLGPSVFLFPPKPKDTLMISRTPEVTCVVVDVSHEDPEVKFNWYVDGVEVHNAKTKPREEQYNSTYRVVSVLTVLHQDWLNGKEYKCKVSNKALPAPIEKTISKAKGQPREPQVYTLPPSREEMTKNQVSLTCLVKGFYPSDIAVEWESNGQPENNYKTTPPVLDSDGSFFLYSKLTVDKSRWQQGNVFSCSVMHEALHNHYTQKSLSLSPG
light: ENVLTQSPAIMSASPGEKVTMTCRASSSVSSSYLHWYQQKSGASPKLWIYSTSNLASGVPARFSGSGSGTSYSLTISSVEAEDAATYYCQQYSGYPLTFGGGTKLEIKRTVAAPSVFIFPPSDEQLKSGTASVVCLLNNFYPREAKVQWKVDNALQSGNSQESVTEQDSKDSTYSLSSTLTLSKADYEKHKVYACEVTHQGLSSPVTKSFNRGECGGGGSGGGGSGGGGSGGGGSDIQMTQSPSSLSASVGDRVTITCLASEDISNDLAWYQQKPGKAPKLLIYFVDRLLDGVPSRFSGSGSGTDFTLTISSLQPEDFATYYCQQSYKYPPTFGQGTKLEIKGGGGSGGGGSGGGGSGGGGSEVQLVESGGGLVQPGGSLRLSCAASGFTFTNYGLHWVRQAPGKGLEWVSSISPSGGVTYYRDSVKGRFTISRDNSKNTLYLQMNSLRAEDTAVYYCAKPFLGWGGANWIAHWGQGTLVTVSS
notes: Ly368 HC + Ly368 LC-TM559 scFv VL-VH
B3: Ly469 (bispecific antibody, human IgG1, kappa)
heavy: QVQLKESGPGLVAPSQSLSITCTVSGFSLTDYGVRWIRQPPGKGLEWLGVIWGGGSTYYNSALKSRLSISKDNSKSQVFLKMNSLQTDDTAMYYCAKEKRRGYYYAMDYWGQGTSVTVSSASTKGPSVFPLAPSSKSTSGGTAALGCLVKDYFPEPVTVSWNSGALTSGVHTFPAVLQSSGLYSLSSVVTVPSSSLGTQTYICNVNHKPSNTKVDKKVEPKSCDKTHTCPPCPAPELLGPSVFLFPPKPKDTLMISRTPEVTCVVVDVSHEDPEVKFNWYVDGVEVHNAKTKPREEQYNSTYRVVSVLTVLHQDWLNGKEYKCKVSNKALPAPIEKTISKAKGQPREPQVYTLPPSREEMTKNQVSLTCLVKGFYPSDIAVEWESNGQPENNYKTTPPVLDSDGSFFLYSKLTVDKSRWQQGNVFSCSVMHEALHNHYTQKSLSLSPG
light: ENVLTQSPAIMSASPGEKVTMTCRASSSVSSSYLHWYQQKSGASPKLWIYSTSNLASGVPARFSGSGSGTSYSLTISSVEAEDAATYYCQQYSGYPLTFGGGTKLEIKRTVAAPSVFIFPPSDEQLKSGTASVVCLLNNFYPREAKVQWKVDNALQSGNSQESVTEQDSKDSTYSLSSTLTLSKADYEKHKVYACEVTHQGLSSPVTKSFNRGECGGGGSGGGGSGGGGSGGGGSEVQLVESGGGLVQPGGSLRLSCAASGFTFTNYGLHWVRQAPGKGLEWVSSISPSGGVTYYRDSVKGRFTISRDNSKNTLYLQMNSLRAEDTAVYYCAKPFLGWGGANWIAHWGQGTLVTVSSGGGGSGGGGSGGGGSGGGGSDIQMTQSPSSLSASVGDRVTITCLASEDISNDLAWYQQKPGKAPKLLIYFVDRLLDGVPSRFSGSGSGTDFTLTISSLQPEDFATYYCQQSYKYPPTFGQGTKLEIK
notes: Ly368 HC + Ly368 LC-TM559 scFv VH-VL
B4: Ly473 (bispecific antibody, human IgG1, kappa)
heavy: QVQLKESGPGLVAPSQSLSITCTVSGFSLTDYGVRWIRQPPGKGLEWLGVIWGGGSTYYNSALKSRLSISKDNSKSQVFLKMNSLQTDDTAMYYCAKEKRRGYYYAMDYWGQGTSVTVSSASTKGPSVFPLAPSSKSTSGGTAALGCLVKDYFPEPVTVSWNSGALTSGVHTFPAVLQSSGLYSLSSVVTVPSSSLGTQTYICNVNHKPSNTKVDKKVEPKSCDKTHTCPPCPAPELLGPSVFLFPPKPKDTLMISRTPEVTCVVVDVSHEDPEVKFNWYVDGVEVHNAKTKPREEQYNSTYRVVSVLTVLHQDWLNGKEYKCKVSNKALPAPIEKTISKAKGQPREPQVYTLPPSREEMTKNQVSLTCLVKGFYPSDIAVEWESNGQPENNYKTTPPVLDSDGSFFLYSKLTVDKSRWQQGNVFSCSVMHEALHNHYTQKSLSLSPG
light: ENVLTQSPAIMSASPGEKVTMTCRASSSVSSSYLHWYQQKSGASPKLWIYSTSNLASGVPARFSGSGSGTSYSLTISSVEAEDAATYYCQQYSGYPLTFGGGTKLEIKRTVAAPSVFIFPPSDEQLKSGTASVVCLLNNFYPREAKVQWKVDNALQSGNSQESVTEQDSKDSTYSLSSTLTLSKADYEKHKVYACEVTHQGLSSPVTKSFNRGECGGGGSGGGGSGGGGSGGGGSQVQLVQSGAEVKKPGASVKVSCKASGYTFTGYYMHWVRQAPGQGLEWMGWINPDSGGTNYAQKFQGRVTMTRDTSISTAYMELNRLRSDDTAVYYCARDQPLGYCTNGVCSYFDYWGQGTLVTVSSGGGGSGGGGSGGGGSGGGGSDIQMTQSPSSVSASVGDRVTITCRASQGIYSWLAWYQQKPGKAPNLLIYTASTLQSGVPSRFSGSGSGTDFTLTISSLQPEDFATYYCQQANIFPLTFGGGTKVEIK
notes: Ly368 HC + Ly368 LC-Ly253 scFv VH-VL
B5: Ly472 (bispecific antibody, human IgG1, kappa)
heavy: QVQLKESGPGLVAPSQSLSITCTVSGFSLTDYGVRWIRQPPGKGLEWLGVIWGGGSTYYNSALKSRLSISKDNSKSQVFLKMNSLQTDDTAMYYCAKEKRRGYYYAMDYWGQGTSVTVSSASTKGPSVFPLAPSSKSTSGGTAALGCLVKDYFPEPVTVSWNSGALTSGVHTFPAVLQSSGLYSLSSVVTVPSSSLGTQTYICNVNHKPSNTKVDKKVEPKSCDKTHTCPPCPAPELLGPSVFLFPPKPKDTLMISRTPEVTCVVVDVSHEDPEVKFNWYVDGVEVHNAKTKPREEQYNSTYRVVSVLTVLHQDWLNGKEYKCKVSNKALPAPIEKTISKAKGQPREPQVYTLPPSREEMTKNQVSLTCLVKGFYPSDIAVEWESNGQPENNYKTTPPVLDSDGSFFLYSKLTVDKSRWQQGNVFSCSVMHEALHNHYTQKSLSLSPG
light: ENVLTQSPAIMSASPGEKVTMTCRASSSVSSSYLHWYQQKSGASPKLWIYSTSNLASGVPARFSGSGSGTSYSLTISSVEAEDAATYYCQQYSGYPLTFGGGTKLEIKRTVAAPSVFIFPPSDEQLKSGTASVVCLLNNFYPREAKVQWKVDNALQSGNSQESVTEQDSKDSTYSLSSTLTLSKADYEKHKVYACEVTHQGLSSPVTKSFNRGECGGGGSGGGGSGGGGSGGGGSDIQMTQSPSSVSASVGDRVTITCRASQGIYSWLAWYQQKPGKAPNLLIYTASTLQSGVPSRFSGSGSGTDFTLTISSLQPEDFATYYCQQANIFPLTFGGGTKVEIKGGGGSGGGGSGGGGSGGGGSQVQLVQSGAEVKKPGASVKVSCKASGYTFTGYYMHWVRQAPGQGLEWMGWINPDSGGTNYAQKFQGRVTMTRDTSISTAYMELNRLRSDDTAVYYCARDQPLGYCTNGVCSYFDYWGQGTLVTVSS
notes: Ly368 HC + Ly368 LC-Ly253 scFv VL-VH
B6: Ly470 (bispecific antibody, human IgG1, kappa)
heavy: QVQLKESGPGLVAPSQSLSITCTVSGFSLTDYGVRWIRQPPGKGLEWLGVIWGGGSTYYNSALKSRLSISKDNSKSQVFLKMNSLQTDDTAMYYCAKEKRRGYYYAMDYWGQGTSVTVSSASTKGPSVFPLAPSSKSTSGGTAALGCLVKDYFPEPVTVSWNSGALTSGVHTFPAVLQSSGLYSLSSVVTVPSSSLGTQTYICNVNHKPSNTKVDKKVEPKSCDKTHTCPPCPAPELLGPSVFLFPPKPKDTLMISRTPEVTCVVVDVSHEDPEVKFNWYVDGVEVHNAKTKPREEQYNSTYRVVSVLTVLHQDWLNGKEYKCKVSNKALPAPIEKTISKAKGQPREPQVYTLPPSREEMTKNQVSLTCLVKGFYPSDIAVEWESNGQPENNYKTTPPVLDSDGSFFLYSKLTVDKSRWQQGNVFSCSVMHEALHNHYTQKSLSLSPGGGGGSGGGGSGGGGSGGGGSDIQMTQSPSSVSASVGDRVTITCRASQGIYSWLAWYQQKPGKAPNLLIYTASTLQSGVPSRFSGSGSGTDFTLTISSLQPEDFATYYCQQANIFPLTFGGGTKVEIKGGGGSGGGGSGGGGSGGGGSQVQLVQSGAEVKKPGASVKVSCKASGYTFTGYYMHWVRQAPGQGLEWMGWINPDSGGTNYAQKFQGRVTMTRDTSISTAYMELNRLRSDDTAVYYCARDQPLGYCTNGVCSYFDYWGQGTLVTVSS
light: ENVLTQSPAIMSASPGEKVTMTCRASSSVSSSYLHWYQQKSGASPKLWIYSTSNLASGVPARFSGSGSGTSYSLTISSVEAEDAATYYCQQYSGYPLTFGGGTKLEIKRTVAAPSVFIFPPSDEQLKSGTASVVCLLNNFYPREAKVQWKVDNALQSGNSQESVTEQDSKDSTYSLSSTLTLSKADYEKHKVYACEVTHQGLSSPVTKSFNRGEC
notes: Ly368 HC-Ly253 scFv VL-VH + Ly368 LC
B7: Ly471 (bispecific antibody, human IgG1, kappa)
heavy: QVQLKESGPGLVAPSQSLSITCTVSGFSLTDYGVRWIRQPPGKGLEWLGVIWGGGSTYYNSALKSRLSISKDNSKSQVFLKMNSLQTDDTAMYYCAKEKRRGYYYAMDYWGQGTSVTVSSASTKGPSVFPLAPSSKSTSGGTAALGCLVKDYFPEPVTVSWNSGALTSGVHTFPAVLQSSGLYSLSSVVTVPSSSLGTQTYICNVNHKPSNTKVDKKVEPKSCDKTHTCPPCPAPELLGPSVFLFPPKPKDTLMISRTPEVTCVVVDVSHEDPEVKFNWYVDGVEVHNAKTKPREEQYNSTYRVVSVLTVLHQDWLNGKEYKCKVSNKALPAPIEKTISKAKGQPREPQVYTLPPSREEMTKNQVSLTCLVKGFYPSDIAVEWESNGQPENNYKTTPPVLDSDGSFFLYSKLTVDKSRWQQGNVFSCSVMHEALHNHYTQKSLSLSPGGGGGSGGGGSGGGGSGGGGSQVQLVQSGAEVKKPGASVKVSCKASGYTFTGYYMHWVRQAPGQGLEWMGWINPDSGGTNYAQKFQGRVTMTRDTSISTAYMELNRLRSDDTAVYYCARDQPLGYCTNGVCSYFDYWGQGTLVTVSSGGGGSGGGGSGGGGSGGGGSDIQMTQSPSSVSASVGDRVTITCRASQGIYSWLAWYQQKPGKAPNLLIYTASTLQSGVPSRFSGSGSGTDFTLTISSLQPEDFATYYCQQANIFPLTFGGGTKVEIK
light: ENVLTQSPAIMSASPGEKVTMTCRASSSVSSSYLHWYQQKSGASPKLWIYSTSNLASGVPARFSGSGSGTSYSLTISSVEAEDAATYYCQQYSGYPLTFGGGTKLEIKRTVAAPSVFIFPPSDEQLKSGTASVVCLLNNFYPREAKVQWKVDNALQSGNSQESVTEQDSKDSTYSLSSTLTLSKADYEKHKVYACEVTHQGLSSPVTKSFNRGEC
notes: Ly368 HC-Ly253 scFv VH-VL + Ly368 LC
B8: Ly801 (bispecific antibody, human IgG1, kappa)
heavy: EVQLQQSGPELVKPGASVKMSCKASGYTFTSYVMHWVKQKPGQGLEWIGYINPYNDGTECTDKFKGKATLTSDKSSSTAYMELSSLTSEDSAVYYCASIYYGYDGTYFGVWGAGTSVTVSSASTKGPSVFPLAPSSKSTSGGTAALGCLVKDYFPEPVTVSWNSGALTSGVHTFPAVLQSSGLYSLSSVVTVPSSSLGTQTYICNVNHKPSNTKVDKKVEPKSCDKTHTCPPCPAPELLGPSVFLFPPKPKDTLMISRTPEVTCVVVDVSHEDPEVKFNWYVDGVEVHNAKTKPREEQYNSTYRVVSVLTVLHQDWLNGKEYKCKVSNKALPAPIEKTISKAKGQPREPQVYTLPPSREEMTKNQVSLTCLVKGFYPSDIAVEWESNGQPENNYKTTPPVLDSDGSFFLYSKLTVDKSRWQQGNVFSCSVMHEALHNHYTQKSLSLSPG
light: QIVLSQSPAILSTSPGEKVTMTCRASSSVSYMHWYQQKPGSSPKPWIYATSNLASGVPARFSGSRSGTSYSLTISRVEAEDAATYYCQQWSSNTLTFGGGTKLELKRTVAAPSVFIFPPSDEQLKSGTASVVCLLNNFYPREAKVQWKVDNALQSGNSQESVTEQDSKDSTYSLSSTLTLSKADYEKHKVYACEVTHQGLSSPVTKSFNRGECGGGGSGGGGSGGGGSGGGGSDIQMTQSPSSLSASVGDRVTITCKASQNIYIYLNWYQQKPGKAPKLLIYNTNNLQTGVPSRFSGSGSGTDFTLTISSLQPEDFATYYCLQHSSRRTFGGGTKVEIKGGGGSGGGGSGGGGSGGGGSQVQLVESGGGLVQPGGSLKLSCATSGFNFNDYFMNWVRQASGKGLEWVGQIRNKNYNYATYYTESLEGRVTISRDDSKNTAYLQMNSLKTEDTAVYYCTSYYYDGFADYFDYWGQGTTVTVSS
notes: Ly383 HC (IgG1 mutated Fc) + Ly383 LC-TM740 scFv VL-VH
B9: Ly802 (bispecific antibody, human IgG1, kappa)
heavy: EVQLQQSGPELVKPGASVKMSCKASGYTFTSYVMHWVKQKPGQGLEWIGYINPYNDGTECTDKFKGKATLTSDKSSSTAYMELSSLTSEDSAVYYCASIYYGYDGTYFGVWGAGTSVTVSSASTKGPSVFPLAPSSKSTSGGTAALGCLVKDYFPEPVTVSWNSGALTSGVHTFPAVLQSSGLYSLSSVVTVPSSSLGTQTYICNVNHKPSNTKVDKKVEPKSCDKTHTCPPCPAPELLGPSVFLFPPKPKDTLMISRTPEVTCVVVDVSHEDPEVKFNWYVDGVEVHNAKTKPREEQYNSTYRVVSVLTVLHQDWLNGKEYKCKVSNKALPAPIEKTISKAKGQPREPQVYTLPPSREEMTKNQVSLTCLVKGFYPSDIAVEWESNGQPENNYKTTPPVLDSDGSFFLYSKLTVDKSRWQQGNVFSCSVMHEALHNHYTQKSLSLSPG
light: QIVLSQSPAILSTSPGEKVTMTCRASSSVSYMHWYQQKPGSSPKPWIYATSNLASGVPARFSGSRSGTSYSLTISRVEAEDAATYYCQQWSSNTLTFGGGTKLELKRTVAAPSVFIFPPSDEQLKSGTASVVCLLNNFYPREAKVQWKVDNALQSGNSQESVTEQDSKDSTYSLSSTLTLSKADYEKHKVYACEVTHQGLSSPVTKSFNRGECGGGGSGGGGSGGGGSGGGGSQVQLVESGGGLVQPGGSLKLSCATSGFNFNDYFMNWVRQASGKGLEWVGQIRNKNYNYATYYTESLEGRVTISRDDSKNTAYLQMNSLKTEDTAVYYCTSYYYDGFADYFDYWGQGTTVTVSSGGGGSGGGGSGGGGSGGGGSDIQMTQSPSSLSASVGDRVTITCKASQNIYIYLNWYQQKPGKAPKLLIYNTNNLQTGVPSRFSGSGSGTDFTLTISSLQPEDFATYYCLQHSSRRTFGGGTKVEIK
notes: Ly383 HC (IgG1 mutated Fc) + Ly383 LC-TM740 scFv VH-VL

The test deals with T1, human CD40 expressed on CHO cells (human, UniProt P25942 21-277).
T1 construct: whole, on cells; also used for the reporter cells over-expressing human CD40; also called cellular CD40; CHO-CD40 cells
T1 sequence (P25942 21-277): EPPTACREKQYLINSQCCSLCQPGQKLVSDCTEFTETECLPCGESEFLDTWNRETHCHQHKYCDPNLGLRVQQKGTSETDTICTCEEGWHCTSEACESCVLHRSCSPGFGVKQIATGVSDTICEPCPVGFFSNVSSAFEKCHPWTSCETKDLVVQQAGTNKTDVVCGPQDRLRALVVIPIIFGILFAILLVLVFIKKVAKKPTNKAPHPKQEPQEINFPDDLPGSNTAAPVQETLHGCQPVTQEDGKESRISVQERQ
Kind of test: FACS, CHO cells.
Regarding B1, the binding result was “binds”.

With B2, the binding result was “binds”.

On to B3, for which the binding result is “binds”.

For the molecule B4, the binding result is “binds”. For the molecule B5, the binding result was “binds”. As for B6, the entry is “binds”. In the case of B7 it was “binds”.

On to B8, for which the binding result was “binds”.

In the case of B9, the binding result is recorded as “binds”.

The values are drawn from patent US20220372155A1 (LYVGEN BIOPHARMA, published 2022).
